# Assay results published in patent US20150337049A1 (published 2015).
# Where two headings read alike, the source gives them in different places.
# Tests used:
# [1] = target: T1, HSC-F (cynomolgous CD3) (cynomolgus monkey, UniProt Q95LI8 22-171; Q95LI7 23-181); test: FACS binding, HSC-F
# [2] = target: T2, human CD3 on the human T-cell line Jurkat (human, UniProt P09693 23-182; P20963 22-164); test: FACS binding, Jurkat
# [3] = target: Jurkat (CD3) (human, UniProt P09693 23-182; P20963 22-164); test: FACS binding, Jurkat
# Sequence of Jurkat (CD3) (chain, as listed by the source, chain 1 of 4): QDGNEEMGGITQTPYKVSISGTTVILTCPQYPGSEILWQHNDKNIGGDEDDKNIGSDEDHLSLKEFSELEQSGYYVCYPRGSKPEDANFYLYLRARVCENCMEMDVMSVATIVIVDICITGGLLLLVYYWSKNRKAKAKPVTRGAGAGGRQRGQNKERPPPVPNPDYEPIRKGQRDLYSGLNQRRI
# Sequence of Jurkat (CD3) (chain, as listed by the source, chain 2 of 4): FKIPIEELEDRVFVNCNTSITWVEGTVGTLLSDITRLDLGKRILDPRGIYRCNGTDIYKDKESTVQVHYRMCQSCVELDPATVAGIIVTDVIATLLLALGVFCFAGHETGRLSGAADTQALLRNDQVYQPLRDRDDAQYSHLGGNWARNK
# Sequence of Jurkat (CD3) (P09693 23-182, chain 3 of 4): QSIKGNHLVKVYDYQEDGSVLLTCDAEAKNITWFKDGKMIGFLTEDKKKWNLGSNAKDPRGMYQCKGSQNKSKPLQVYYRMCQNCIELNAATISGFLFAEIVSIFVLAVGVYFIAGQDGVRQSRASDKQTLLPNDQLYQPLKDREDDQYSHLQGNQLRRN
# Sequence of Jurkat (CD3) (P20963 22-164, chain 4 of 4): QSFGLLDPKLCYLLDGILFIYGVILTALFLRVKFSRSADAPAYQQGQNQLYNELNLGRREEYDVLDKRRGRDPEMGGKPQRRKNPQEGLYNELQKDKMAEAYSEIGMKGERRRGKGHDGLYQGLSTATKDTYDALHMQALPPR
# [4] = target: T2, human CD3 on the human T-cell line …; test: FACS binding, Jurkat; remark: listed apart in the source
# [5] = target: T1, HSC-F (cynomolgous CD3); test: FACS binding, HSC-F; remark: listed apart in the source
# T2 sequence (chain, as listed by the source, chain 1 of 4): as the sequence (chain, as listed by the source, chain 1 of 4) above
# T2 sequence (chain, as listed by the source, chain 2 of 4): as the sequence (chain, as listed by the source, chain 2 of 4) above
# T2 sequence (P09693 23-182, chain 3 of 4): as the sequence (P09693 23-182, chain 3 of 4) above
# T2 sequence (P20963 22-164, chain 4 of 4): as the sequence (P20963 22-164, chain 4 of 4) above
# T1 sequence (Q95LI7 whole entry, looked up, chain 1 of 2): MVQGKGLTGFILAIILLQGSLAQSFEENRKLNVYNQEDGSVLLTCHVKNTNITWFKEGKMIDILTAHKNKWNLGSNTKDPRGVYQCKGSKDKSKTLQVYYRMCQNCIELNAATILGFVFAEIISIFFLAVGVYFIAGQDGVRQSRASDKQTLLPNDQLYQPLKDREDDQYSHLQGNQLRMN
# T1 sequence (Q95LI8 whole entry, looked up, chain 2 of 2): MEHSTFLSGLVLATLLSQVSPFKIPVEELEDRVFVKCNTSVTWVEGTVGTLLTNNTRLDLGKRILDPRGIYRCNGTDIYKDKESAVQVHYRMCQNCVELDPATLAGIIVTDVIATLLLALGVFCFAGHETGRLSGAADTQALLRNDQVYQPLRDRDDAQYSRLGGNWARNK
Binder,EC50 [1],EC50 [2],other results
"IgG1-huCD3-H1L2, wild type Fc region (antibody, V domains shown) VH: EVKLVESGGGLVQPGGSLRLSCAASGFTFNTYAMNWVRQAPGKGLEWVARIRSKYNNYATYYADSVKDRFTISRDDSKSSLYLQMNNLKTEDTAMYYCVRHGNFGNSYVSWFAYWGQGTLVTVSS VL: QAVVTQEPSFSVSPGGTVTLTCRSSTGAVTTSNYANWVQQTPGQAFRGLIGGTNKRAPGVPARFSGSILGNKAALTITGAQADDESIYFCALWYSNLWVFGGGTKLTVL",–,0.08 µg/mL,–
"IgG1-huCD3-H1L2 (antibody, V domains shown) VH: EVKLVESGGGLVQPGGSLRLSCAASGFTFNTYAMNWVRQAPGKGLEWVARIRSKYNNYATYYADSVKDRFTISRDDSKSSLYLQMNNLKTEDTAMYYCVRHGNFGNSYVSWFAYWGQGTLVTVSS VL: QAVVTQEPSFSVSPGGTVTLTCRSSTGAVTTSNYANWVQQTPGQAFRGLIGGTNKRAPGVPARFSGSILGNKAALTITGAQADDESIYFCALWYSNLWVFGGGTKLTVL",0.31 µg/mL,–,–
BsIgG1 CD3 x HER2 (bispecific antibody) chain 1: EVKLLESGGGLVQPKGSLKLSCAASGFTFNTYAMNWVRQAPGKGLEWVARIRSKYNNYATYYADSVKDRFTISRDDSQSILYLQMNNLKTEDTAMYYCVRHGNFGNSYVSWFAYWGQGTLVTVSA chain 2: QAVVTQESALTTSPGETVTLTCRSSTGAVTTSNYANWVQEKPDHLFTGLIGGTNKRAPGVPARFSGSLIGDKAALTITGAQTEDEAIYFCALWYSNLWVFGGGTKLTVL chain 3: QVQLVQSGAEVKKPGASVKVSCKASGYTFTNYGISWVRQAPGQGLEWMGWLSAYSGNTIYAQKLQGRVTMTTDTSTTTAYMELRSLRSDDTAVYYCARDRIVVRPDYFDYWGQGTLVTVSS chain 4: EIVLTQSPATLSLSPGERATLSCRASQSVSSYLAWYQQKPGQAPRLLIYDASNRATGIPARFSGSGSGTDFTLTISSLEPEDFAVYYCQQRSNWPRTFGQGTKVEIK,–,–,EC50 [3]: 0.68 µg/mL
"IgG1-huCD3-H3L3, wild type Fc region (antibody, V domains shown) VH: EVKLVESGGGLVKPGRSLRLSCAASGFTFNTYAMNWVRQAPGKGLEWVARIRSKYNNYATYYADSVKDRFTISRDDSKSILYLQMNSLKTEDTAMYYCVRHGNFGNSYVSWFAYWGQGTLVTVSS VL: QAVVTQEPSFSVSPGGTVTLTCRSSTGAVTTSNYANWVQQTPGQAFRGLIGGTNKRAPGVPARFSGSILGNKAALTITGAQADDESDYYCALWYSNLWVFGGGTKLTVL",–,0.02 µg/mL,–
"IgG1-huCD3-H1L3 (antibody, V domains shown) VH: EVKLVESGGGLVQPGGSLRLSCAASGFTFNTYAMNWVRQAPGKGLEWVARIRSKYNNYATYYADSVKDRFTISRDDSKSSLYLQMNNLKTEDTAMYYCVRHGNFGNSYVSWFAYWGQGTLVTVSS VL: QAVVTQEPSFSVSPGGTVTLTCRSSTGAVTTSNYANWVQQTPGQAFRGLIGGTNKRAPGVPARFSGSILGNKAALTITGAQADDESDYYCALWYSNLWVFGGGTKLTVL",0.28 µg/mL,–,–
"IgG1-huCD3-H3L1-LFLEDA (antibody, V domains shown) VH: EVKLVESGGGLVKPGRSLRLSCAASGFTFNTYAMNWVRQAPGKGLEWVARIRSKYNNYATYYADSVKDRFTISRDDSKSILYLQMNSLKTEDTAMYYCVRHGNFGNSYVSWFAYWGQGTLVTVSS VL: not shown",0.19 µg/mL,–,EC50 [5]: 0.3 µg/mL
bsIgG1 huCD3-H3L1xHER2-LFLEDA (bispecific antibody) heavy 1: EVKLVESGGGLVKPGRSLRLSCAASGFTFNTYAMNWVRQAPGKGLEWVARIRSKYNNYATYYADSVKDRFTISRDDSKSILYLQMNSLKTEDTAMYYCVRHGNFGNSYVSWFAYWGQGTLVTVSSASTKGPSVFPLAPSSKSTSGGTAALGCLVKDYFPEPVTVSWNSGALTSGVHTFPAVLQSSGLYSLSSVVTVPSSSLGTQTYICNVNHKPSNTKVDKRVEPKSCDKTHTCPPCPAPEFEGGPSVFLFPPKPKDTLMISRTPEVTCVVVAVSHEDPEVKFNWYVDGVEVHNAKTKPREEQYNSTYRVVSVLTVLHQDWLNGKEYKCKVSNKALPAPIEKTISKAKGQPREPQVYTLPPSREEMTKNQVSLTCLVKGFYPSDIAVEWESNGQPENNYKTTPPVLDSDGSFLLYSKLTVDKSRWQQGNVFSCSVMHEALHNHYTQKSLSLSPGK VL 1: not shown heavy 2: QVQLVQSGAEVKKPGASVKVSCKASGYTFTNYGISWVRQAPGQGLEWMGWLSAYSGNTIYAQKLQGRVTMTTDTSTTTAYMELRSLRSDDTAVYYCARDRIVVRPDYFDYWGQGTLVTVSSASTKGPSVFPLAPSSKSTSGGTAALGCLVKDYFPEPVTVSWNSGALTSGVHTFPAVLQSSGLYSLSSVVTVPSSSLGTQTYICNVNHKPSNTKVDKRVEPKSCDKTHTCPPCPAPEFEGGPSVFLFPPKPKDTLMISRTPEVTCVVVAVSHEDPEVKFNWYVDGVEVHNAKTKPREEQYNSTYRVVSVLTVLHQDWLNGKEYKCKVSNKALPAPIEKTISKAKGQPREPQVYTLPPSREEMTKNQVSLTCLVKGFYPSDIAVEWESNGQPENNYKTTPPVLDSDGSFFLYSRLTVDKSRWQQGNVFSCSVMHEALHNHYTQKSLSLSPGK VL 2: EIVLTQSPATLSLSPGERATLSCRASQSVSSYLAWYQQKPGQAPRLLIYDASNRATGIPARFSGSGSGTDFTLTISSLEPEDFAVYYCQQRSNWPRTFGQGTKVEIK,–,–,EC50 [5]: 3.54 µg/mL
bsIgG1 huCD3-H3L1×HER2-LFLEDA (bispecific antibody) heavy 1: EVKLVESGGGLVKPGRSLRLSCAASGFTFNTYAMNWVRQAPGKGLEWVARIRSKYNNYATYYADSVKDRFTISRDDSKSILYLQMNSLKTEDTAMYYCVRHGNFGNSYVSWFAYWGQGTLVTVSSASTKGPSVFPLAPSSKSTSGGTAALGCLVKDYFPEPVTVSWNSGALTSGVHTFPAVLQSSGLYSLSSVVTVPSSSLGTQTYICNVNHKPSNTKVDKRVEPKSCDKTHTCPPCPAPEFEGGPSVFLFPPKPKDTLMISRTPEVTCVVVAVSHEDPEVKFNWYVDGVEVHNAKTKPREEQYNSTYRVVSVLTVLHQDWLNGKEYKCKVSNKALPAPIEKTISKAKGQPREPQVYTLPPSREEMTKNQVSLTCLVKGFYPSDIAVEWESNGQPENNYKTTPPVLDSDGSFLLYSKLTVDKSRWQQGNVFSCSVMHEALHNHYTQKSLSLSPGK VL 1: not shown heavy 2: QVQLVQSGAEVKKPGASVKVSCKASGYTFTNYGISWVRQAPGQGLEWMGWLSAYSGNTIYAQKLQGRVTMTTDTSTTTAYMELRSLRSDDTAVYYCARDRIVVRPDYFDYWGQGTLVTVSSASTKGPSVFPLAPSSKSTSGGTAALGCLVKDYFPEPVTVSWNSGALTSGVHTFPAVLQSSGLYSLSSVVTVPSSSLGTQTYICNVNHKPSNTKVDKRVEPKSCDKTHTCPPCPAPEFEGGPSVFLFPPKPKDTLMISRTPEVTCVVVAVSHEDPEVKFNWYVDGVEVHNAKTKPREEQYNSTYRVVSVLTVLHQDWLNGKEYKCKVSNKALPAPIEKTISKAKGQPREPQVYTLPPSREEMTKNQVSLTCLVKGFYPSDIAVEWESNGQPENNYKTTPPVLDSDGSFFLYSRLTVDKSRWQQGNVFSCSVMHEALHNHYTQKSLSLSPGK VL 2: EIVLTQSPATLSLSPGERATLSCRASQSVSSYLAWYQQKPGQAPRLLIYDASNRATGIPARFSGSGSGTDFTLTISSLEPEDFAVYYCQQRSNWPRTFGQGTKVEIK,–,–,EC50 [4]: 0.28 µg/mL

# Now from value to binder, other results behind:
EC50 [1],EC50 [2],Binder,other results
0.26 µg/mL,–,"IgG1-huCD3-H4L1 (antibody, V domains shown) VH: EVKLVESGGGLVKPGRSLRLSCAASGFTFNTYAMNWVRQAPGKGLEWVARIRSKYNNYATYYADSVKDRFTISRDDSKSILYLQMNSLKTEDTAMYYCVRHGNFGNSYVSWFAYWGQGTMVTVSS VL: not shown",–
0.11 µg/mL,–,"IgG1-huCD3-H3L3 (antibody, V domains shown) VH: EVKLVESGGGLVKPGRSLRLSCAASGFTFNTYAMNWVRQAPGKGLEWVARIRSKYNNYATYYADSVKDRFTISRDDSKSILYLQMNSLKTEDTAMYYCVRHGNFGNSYVSWFAYWGQGTLVTVSS VL: QAVVTQEPSFSVSPGGTVTLTCRSSTGAVTTSNYANWVQQTPGQAFRGLIGGTNKRAPGVPARFSGSILGNKAALTITGAQADDESDYYCALWYSNLWVFGGGTKLTVL",–
0.37 µg/mL,–,"IgG1-huCD3-H1L1 (antibody, V domains shown) VH: EVKLVESGGGLVQPGGSLRLSCAASGFTFNTYAMNWVRQAPGKGLEWVARIRSKYNNYATYYADSVKDRFTISRDDSKSSLYLQMNNLKTEDTAMYYCVRHGNFGNSYVSWFAYWGQGTLVTVSS VL: not shown",–
–,0.06 µg/mL,"IgG1-huCD3-H1L3, wild type Fc region (antibody, V domains shown) VH: EVKLVESGGGLVQPGGSLRLSCAASGFTFNTYAMNWVRQAPGKGLEWVARIRSKYNNYATYYADSVKDRFTISRDDSKSSLYLQMNNLKTEDTAMYYCVRHGNFGNSYVSWFAYWGQGTLVTVSS VL: QAVVTQEPSFSVSPGGTVTLTCRSSTGAVTTSNYANWVQQTPGQAFRGLIGGTNKRAPGVPARFSGSILGNKAALTITGAQADDESDYYCALWYSNLWVFGGGTKLTVL",–
–,0.05 µg/mL,"IgG1-huCD3-H4L1, wild type Fc region (antibody, V domains shown) VH: EVKLVESGGGLVKPGRSLRLSCAASGFTFNTYAMNWVRQAPGKGLEWVARIRSKYNNYATYYADSVKDRFTISRDDSKSILYLQMNSLKTEDTAMYYCVRHGNFGNSYVSWFAYWGQGTMVTVSS VL: not shown",–
–,0.04 µg/mL,"IgG1-huCD3-H3L1 with LFLEDA mutations (antibody, V domains shown) VH: EVKLVESGGGLVKPGRSLRLSCAASGFTFNTYAMNWVRQAPGKGLEWVARIRSKYNNYATYYADSVKDRFTISRDDSKSILYLQMNSLKTEDTAMYYCVRHGNFGNSYVSWFAYWGQGTLVTVSS VL: not shown",EC50 [4]: 0.04 µg/mL
